From patent publication US20190269666A1, “COMBINATION THERAPY WITH MERESTINIB AND ANTI-PD-L1 OR ANTI-PD-1 INHIBITORS FOR USE IN THE TREATMENT OF CANCER” (Eli Lilly and Company, priority 2016, published 2019) come the findings set out here.

The target of data set [1] is T1, human PD-L1 (Homo sapiens, UniProt Q9NZQ7). The data set is described as follows: ELISA binding to recombinant PD-L1. The arrangement: purchased R&D Systems. The settings on record: after 4 weeks at 4° C., 25° C. and 40° C. Here is the method:
The ability for antibodies of the present invention to bind human PD-L1 can be measured with an ELISA assay. For the PD-L1 binding assay, a 96-well plate (NUNC®) is coated with human PD-L1-Fc (R&D Systems) overnight at 4° C. Wells are blocked for 2 hours with blocking buffer (PBS containing 5% nonfat dry milk). Wells are washed three times with PBS containing 0.1% TWEEN®-20. Anti-PD-L1 antibody or control IgG (100 μL) is then added and incubated at room temperature for 1 hour. After washing, the plate is incubated with 100 μL of goat anti-human IgG F(ab′)2-HRP conjugate (Jackson Immuno Research) at room temperature for 1 hour. The plates are washed and then incubated with 100 μL of 3,3′, 5,5′-tetra-methylbenzidine. The absorbance at 450 nm is read on a microplate reader. The half maximal effective concentration (EC50) is calculated using GraphPad Prism 6 software.
Target sequence in this assay (Q9NZQ7 with tags, fused parts or gaps limits assumed): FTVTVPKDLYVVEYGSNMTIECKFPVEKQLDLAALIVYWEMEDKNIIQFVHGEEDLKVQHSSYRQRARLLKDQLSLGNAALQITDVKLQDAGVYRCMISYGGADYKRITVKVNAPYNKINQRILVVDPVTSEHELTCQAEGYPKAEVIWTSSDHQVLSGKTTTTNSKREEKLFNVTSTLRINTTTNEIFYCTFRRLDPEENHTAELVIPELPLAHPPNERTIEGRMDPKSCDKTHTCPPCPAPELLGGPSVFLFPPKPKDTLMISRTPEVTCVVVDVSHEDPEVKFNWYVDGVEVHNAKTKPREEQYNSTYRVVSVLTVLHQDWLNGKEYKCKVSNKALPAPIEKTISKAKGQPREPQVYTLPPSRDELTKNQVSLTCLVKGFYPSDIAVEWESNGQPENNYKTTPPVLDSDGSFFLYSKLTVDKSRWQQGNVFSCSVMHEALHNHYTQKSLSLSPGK
A general note: In an ELISA, binding on a coated surface is turned into a signal by an enzyme label.

The next data set deals with Cyno PD-L1. Put plainly: Binding kinetics and affinity by surface plasmon resonance (Biacore). More on the design: species or system cynomolgus monkey. The settings on record: SPR, analysis at 37° C. Here is the method: (§1) The kinetics and equilibrium dissociation constant (KD) for human PD-L1 is determined for antibodies of the present invention using surface plasmon resonance (Biacore).
(§2) Immobilization of antibodies of the present invention as ligand on to sensor chip surface is performed at 25° C. Soluble human PD-L1-Fc fusion protein (and in some cases, cynomolgus monkey PD-L1-Fc fusion proteins) is injected as analyte at concentrations ranging from 0.0123 nM-9 nM. The analysis is performed at 37° C. The contact time for each sample is 180 seconds at 30 μL/minute. The dissociation time was 240-1500 seconds. The immobilized surface is regenerated for 18 seconds with 0.95 M NaCl/25 mM NaOH at 30 μL/minute, and then stabilized for 30 seconds. Binding kinetics are analyzed using the Biacore T200 Evaluation software (Version 3.0). Data are referenced to a blank flow cell, and the data are fit to a 1:1 binding model.
Background: In SPR one partner is held on a chip, and binding of the other changes the refractive index at the surface.

Data set [2] has as its target T1, human PD-L1. The description is as above. The arrangement: Soluble human PD-L1-Fc fusion protein. The settings on record: SPR, analysis at 37° C. Here is the method: as §1, §2
Target sequence in this assay (Q9NZQ7 19-238 limits assumed): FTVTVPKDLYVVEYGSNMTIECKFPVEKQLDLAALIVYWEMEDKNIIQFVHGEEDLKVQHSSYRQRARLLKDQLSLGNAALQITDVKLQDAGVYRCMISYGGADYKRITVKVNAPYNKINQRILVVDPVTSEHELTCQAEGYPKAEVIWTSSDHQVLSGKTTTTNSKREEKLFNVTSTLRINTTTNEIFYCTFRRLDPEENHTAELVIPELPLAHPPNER
The target in a further data set is PD-L1 binding to PD-1 (Homo sapiens, UniProt Q9NZQ7). Put plainly: ELISA blocking of the interaction of PD-L1 with PD-1. The settings on record: after 4 weeks at 4° C., 25° C. and 40° C. Here is the method:
The ability for antibodies of the present invention to block PD-L1 binding to PD-1 can be measured in an ELISA assay. For the receptor-ligand blocking assay, varying amounts (of anti-PD-L1 antibody or control IgG are mixed with a fixed amount of biotinylated PD-L1-Fc fusion protein (100 ng/well) and incubated at room temperature for 1 hour. The mixture is transferred to 96-well plates pre-coated with PD-1-Fc (1 μg/ml) and then incubated at room temperature for an additional 1 hour. After washing, streptavidin HRP conjugate is added, and the absorbance at 450 nm is read. IC50 represents the antibody concentration required for 50% inhibition of PD-L1 binding to PD-1.

PD-L1 binding to PD-1, sequence (Q9NZQ7 19-239 limits assumed): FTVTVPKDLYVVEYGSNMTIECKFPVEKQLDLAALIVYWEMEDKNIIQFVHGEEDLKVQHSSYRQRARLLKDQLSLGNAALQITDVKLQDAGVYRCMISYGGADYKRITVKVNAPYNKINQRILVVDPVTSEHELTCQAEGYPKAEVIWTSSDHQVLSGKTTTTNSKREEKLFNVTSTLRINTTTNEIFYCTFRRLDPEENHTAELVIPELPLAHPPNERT

“LY3300054: IgG1 variant antibody lacking Fc effector function, that binds human PD-L1; HC SEQ ID NO: 10, LC SEQ ID NO: 11”: the “binding activities after storage” value in the data set with human PD-L1 [1] is given as “retains its binding activities”. In the data set with Cyno PD-L1, the “Koff” value was determined as 0.000184 s⁻¹ and the “Kon” value was 1.51e+06 M⁻¹ s⁻¹. For the same substance, in the data set with human PD-L1 [2], the “Koff” value is 0.000114 s⁻¹ and the “Kon” value came to 1.4e+06 M⁻¹ s⁻¹. For the same substance, the “blocking activities after storage” value with PD-L1 binding to PD-1 is “retains its blocking activities”.
